Laboratory results as given in the DeepSol protein solubility set.

Assay: soluble on expression in E. coli; label from the status in PepcDB or PDB records

Row | Sequence | soluble on expression in E. coli
1 | MYVMTQSGWLELICGCMFSGKSEELIRRVRRAQFAKQEVKVFKPTIDNRYSEDAVVSHNGNSVIAIPVATPAEMFRYISAATDVVAIDEIQFFSDDIIDVVQTLADCGYRVIAAGLDQDFRGEPFGPVPALMAIAESVTKLQAVCTVCGSPASRTQRLINGAPASYDDPVILVGASEAYEPRCRHHHEVPGKPKKRYNHPLAGHTGE | soluble
2 | NAELAKSGIEVKNDVCEHFAYSRQELFHLIRIEEIKTFDELLEKYGKGYGCEVCKPLAGSILASCWGEHILKPQLVKLHDTNDNFLGNIQKDGTYSVIPRMAGGEVTPQALGALANVAAEYNLYTKVTGAQRIGLFGAQKDDLPEIWRKLIDAGFETGQAYAKALRMAKTCVGSTWCRYGVQDSVGLGSYIENRYKGIRTPHKMKFGVSGCTRECAEAQGKDLGIIATDAGWNMYVCGNGGMKPRHADLLASDLDKETLIKYIDRFMMFYIRTAAPLQRTSVWMENMEGGVDYLRAVIVEDKLGINAQLEADVAKLVDEYECEWTATINDASQLTRFAHFINSDKRDDNVVFVQEREQHRPATFTEKHPEAKGDILHVAITEA | not soluble
3 | NAVHFGAGNIGRGFIGKLLADAEVEVTFADVDVPLVDQLSHKQEYKVKVVGTECKIDTVTHVTAVNSASEDVIDRIVKTDLVTTAVGPNVLDIIAKTIAKGIAKRFEAGNDAPLNIIACENMVRGTTHLKGEVYKHLDKSLHAKADELVGFVDSAVDRIVPPAEAANDDPLEVTVESFSEWIVDEQQFKGDIPNIAGMEKTNN | soluble
4 | NDGTTVTPLCTSPVVQCGEGTLFGGDEPARTWFTAAQSSGLAASGNLPSYDPKFNRGVSGSFGTSYVGREGESVRKELSAKGYKVTMTSAPGDGIPKGSVVNVIAPVPLKPGGTIELFISDGTRPRTTPPSTTRRPNPTEEVVPGTGVSQNDLDDLAHQLQQLLPGF | not soluble
5 | NDLVSFTLRGNASWNRDKIIENDEAPKPYPWMEKRGTNVFSQWGLIADGLFTSEEEIEKHATQFGQVYIGDIKYRDLNNDKKIDSNDICRIGQGTIPKYNYGFGFDVQIGYFSVSALFQGAADVTTCLSGNSIIPFSSQAGIDNLFDNIEDRWSPDDPTNEDVFYPRLHYGNSNNSNNYRASTWWLRNMDYLRLKQFNIAYNLPENTLKSVGVKGARIYLMGTNLLTFSKFKLWDPEVYSSNGAAYPNVMSCSLGVNFSF | not soluble
6 | NEDNSFTVRANMTYAVSKVVHWDQDAVRYPYQSYSDVNYGVMRGLVALGLFQNQDEINRSPKQTYGEVRPGDIRYKDVNADGKIDDDDIVPIAHSNVPQIQYGFALEYRYKRWTISALFTGAAKVNFLYGGSGFYPFSGGEVGNILSIVNDPKNRWTPAWYSGDPSTENPNARFPRLTYGENKNNNRASTFWLADGSYLRWKSLDISYRIGTNKVLRTVGISDMNLQFVGQNLAVWDSVKLWDPGQASKNGAVYPLQRTFSLQLTATF | not soluble
7 | NGLVDSMIKNAIAWQTSHLQIHQSAYLVNPELKDTIPDSQSIVTTLDKHQSVKAVSERFLADGMIASARSSRGIRINGIHLEQEQKITPLSEHIIDGYWLDEEGRNPILVSQKTAKRLKLRVGSKVILTLSDINGDVSGAAFRVKGIFKTPSTTFDDGNVYVRKADLEKIAGIAGAHEIAILLNANDDDVLQNIVSFTRTLTDDGSGKPLTVRTWLEIQPLLSTMMSSMDISNQ | not soluble
8 | NGWVWKLGMNLTHYKNKVTELPLKDMPQSGVNKLQVGRSVYDFYMKEWAGVDPDNGNPLWYMDEKDANDNLTGKRVTTSDYASANYYYVNKSSLPKVYGGFNTSLSWKGFDLSAIFAYSIGGYIYNRDITMILHNGSLEGRDWSTEILKRWTPENRYTDVPALSTTSNNWNSASTRFLQNNSYMRLKNLTLSYDLPKQWISKLALSSVQVFVQGDNLFTIHRNQGLDPEQGITGITYYRYPAMRTISGGINLSF | not soluble
9 | NIENSSLERIANILNSKLKGLTIEQINLEVINNIKKDLREYGHIFDCIMPNLYDILREADSTEVYKEGTMNIFNYPEFKDIEKAKEFLSVIDDRRILDTLFNASGGVTVNIGNENSIKEARDFSVVSSVYKYNGRPLGTIGIIGPTRIPYSKVIKVIMEVVDQINNNLDKMNNS | not soluble
10 | NKDNLDLAGLTSLLSEKIKEFLQEKKMQSFYQQELETVESLQSLASRPVTHSTGSDQVELKDSGTSGVAQRVFKNALQLLQEKGLVFQRDSGSDKLYYVTTKDKDLQ | soluble
11 | NLLEEESAVLGQAVTNLMLSGDNVNNKNIILSLIHSLETTSDILKADVIRKTLEIVLRYTADDM | soluble
12 | NNESSLIEQAPIPQDGLTVAPHRAQREAVHIEKIMLKGVQRKRADKYWEYTFKVNWSDLSVTTVTKTHQELQEFLLKLPKELSSETFDKTILRALNQGSLKREERRHPDLEPILRQLFSSSSQAFLQSQKVHSFFQSISSDSLHSINNLQSSLKTSKILEHLKEDSSEASSQEEDVLQHAIIHKKHTGKSPIVNNIGTSCSPLDGLTMQYSEQNGIVDWRKQSCTTIQHPEHCVTSADQHSAEKRSLSSINKKKGKPQTEKEKIKKTDNRLNSRINGIRLSTPQHAHGGTVKDVNLDIGSGHDTCGETSSESYSSPSSPRHDGRESFESEEEKDRDTDSNSEDSGNPSTTRFTGYGSVNQTVTVKPPVQIASLGNENGNLLEDPLNSPKYQHISFMPTLHCVMHNGAQKSEVVVPAPKPADGKTIGMLVPSPVAISAIRESANSTPVGILGPTACTGESEKHLELLASPLPIPSTFLPHSSTPALHLTVQRLKLPPPQGSSESCTVNIPQQPPGSLSIASPNTAFIPIHNPGSFPGSPVATTDPITKSASQVVGLNQMVPQIEGNTGTVPQPTNVKVVLPAAGLSAAQPPASYPLPGSPLAAGVLPSQNSSVLSTAATSPQPASAGISQAQATVPPAVPTHTPGPAPSPSPALTHSTAQSDSTSYISAVGNTNANGTVVPPQQMGSGPCGSCGRRCSCGTNGNLQLNSYYYPNPMPGPMYRVPSFFTLPSICNGSYLNQAHQSNGNQLPFFLPQTPYANGLVHDPVMGSQANYGMQQMAGFGRFYPVYPAPNVVANTSGSGPKKNGNVSCYNCGVSGHYAQDCKQSSMEANQQGTYRLRYAPPLPPSNDTLDSAD | soluble
13 | NNNLTWNIYANMTWNKNKIIKLSTDEPIEYTYQIIEEGRPYRQFYMKEYAGVDRENGKPLWYLNEEGNETTSDYNAAAKRYVGDADPKVLGGFGTNLSWKGFDFNMNFTYRLGGKVFDSGASFTGFGMANRTPLKDVALNSWTEENKDAKYPQYIYGDPNKATQTSSRFLYSSNFLRISNMTLGYTVPVNLTKKIFIQKLRAYISIDNLYTFTSNDFVGYNPETYSNGVIAWQYPATRTFIGGIQLSF | not soluble
14 | NPVENYIDEVLNEVLVVPNINSSNPTTSNSAPALDAAETGHTSSVQPEDVIETRYVQTSQTRDEMSLESFLGRSGCIHESKLEVTLANYNKENFTVWAINLQEMAQIRRKFELFTYTRFDSEITLVPCISALSQDIGHITMQYMYVPPGAPVPNSRDDYAWQSGTNASVFWQHGQAYPRFSLPFLSVASAYYMFYDGYDEQDQNYGTANTNNMGSLCSRIVTEKHIHKVHIMTRIYHKAKHVKAWCPRPPRALEYTRAHRTNFKIEDRSIQTAIVTRPIITTAGPSDMY | soluble
15 | NSSGVNRVVGNNLDDLALPKLAKDQTNPMTMEELTTRFLRSDSATFDGTVVEVQGFASAAADGTWRLSRYKIYCCAADAMAYTATLETSTSMSSDQWYRVRGVVRVSSAHNPQFPMIEVHNLEAIDTPTEPYL | not soluble
16 | NTLGMALYADGGLMASKPYAASGKYIHRMSNFCQSCYYNPNDLLGEKACPFNALYWNFLHQNQEKLKDNPRLRYAYMNWQKMDFDKQKKTIHKAQRILADLDSANL | not soluble
17 | PAAQSCAARVGAPLVNDTVSISLSDHLTDMPTIESRLHAAAKEGFTITIYNPWSRKRRDNYEKCCEILLEHRDPETPVGVVHAAGREDEQVEIVELGELPELGETDLVDMTTTLLVGNEDTY | not soluble
18 | PATDIMFPHSSMELVEGIYKHNQVADYFNKVLADTLLAYLDERLKHDPEASIRIMEIGAGTGGTSAGIFEKLKPYQKHINEYCYTDLSKAFLLHAEKEYGAENPYLTYQLFDVEKPIDQQEFEAGGYDVVIAANVLHATKNIRQTLRHTKAVMKNNGMLLLNEMAGNSLFPHITFGLLEGWWLYEDPAVRIPGCPGLHPDSWKAALESEGFESVFF | not soluble
19 | PEREAVALVGTRRASPWALAFARRLARELAEAGLWVVSGLARGIDREAHLGALEAGGRTLGVLGSALDRVYPPENRPLAQRMDLLSEFPFGTGPKPEFFPRRNRLIAGLCRAVVVVEAPLDSGALITARHALELGKEVLAVPGRPTDERSLGANRLIQDGAYPVLSAEDVLSYLGMSARP | not soluble
20 | PFMDQSGGGVTFCGGEPLLHPEFLIDILKRCGQQGIHRAVDTTLLARKETVDEVMRNCELLLIDLKSMDSTVHQTFCDVPNELILKNIRRVAEADFPYYIRIPLIEGVNADEKNIKLSAEFLASLPRHPEIINLLPYHDIGKGKHAKLGSIYNPKGYKMQTPSEEVQQQCIQILTDYGLKATIGG | soluble
21 | PGATPMSLGLFSPTILLPDSAREWPPERQRLVLLHEMAHLKHRDLLLGLVGQLGRALHWPNPLAWTGWSKLLQAREAACDETVLAAGEDPETYAHQLLAAAR | not soluble
22 | PKHGKRYRALLEKVDPNKIYTIDEAAHLVKELATAKFDETVEVHAKLGIDPRRSDQNVRGTVSLPHGGRIEFRNDKTGAIHAPVGKASFPPEKLADNIRAFIRALEAHKPEGAKGTFLRSVYVTTTMGPSVRINPHS | soluble
23 | PLPIPPPPPDIQPLERYWAAHQQLRETDIPQLSQASRLSTQQVLDWFDSRLPQPAEV | soluble
24 | PLTEAQKNKLRHLSVVTLAAKVKCIPYAVLLEALALRNVRQLEDLVIEAVYADVLRGSLDQRNQRLEVDYSIGRDIQRQDLSAIARTLQEW | not soluble
25 | PMSEIVRVHASSGTTGKPTVVGYTRRDIAMWSEVVARALNCAGASREDFIQIAYGYGLFTGGLGLHYGSEKLGATVIPISGGNTQKQVQLMADFKTTVLACTPSYALYLAESLEEAGMTTDDISLRVGIFGAEPWTPGMRKEIEIKLGIKAMDIYGLSEVMGPGVACDCEYQAGLHVN | not soluble
26 | PNRRADDNATIRVTNLSEDTRETDLQELFRPFGSISRIYLAKDKTTGQSKGFAFISFHRREDAARAIAGVSGFGYDHLILNVEWAKPSTN | soluble
27 | PPAVSDIRVTRSSPSSLSLAWAVPRAPSGAVLDYEVKYHEKGAEGPSSVRFLKTSENRAELRGLKRGASYLVQVRARSEAGYGPFGQEHHSQTQLD | soluble
28 | PQRSQRESRHLFIREAKKLCQKEFKRWFILAADVNPLMKYFKDRELPIPTLYLMGDRDYMFIQPVKEMVAAHKLSILREIPNCGHVCNVERPEDFNQHSIEFIKQQSIVA | not soluble
29 | PRLLCTATKQKNSGQNLEEDMGQSEQKADPPATEKTLLEEKVKLEEQLKETVEKYKRALADTENLRQRSQKLVEEAKLYGIQAFCKDLLEVADVLEKATQCVPKEEIKDDNPHLKNLYEGLVMTEVQIQKVFTKHGLLKLNPVGAKFDPYEHEALFHTPVEGKEPGTVALVSKVGYKLHGRTLRPALVGVVKEA | not soluble
30 | PSARDILQQGLDRLGSPEDLASRIDSTLLSPRATEEDVRNLVREASDYGFRCAVLTPVYTVKISGLAEKLGVKLCSVIGFPLGQAPLEVKLVEAQTVLEAGATELDVVPHLSLGPEAVYREVSGIVKLAKSYGAVVKVILEAPLWDDKTLSLLVDSSRRAGADIVKTSTGVYTKGGDPVTVFRLASLAKPLGMGVKASGGIRSGIDAVLAVGAGADIIGTSSAVKVLESFKSLV | soluble
